Results reported in patent US20240294650A1 (Alector, published 2024).

T1: human MerTK (human, UniProt Q12866 21-999)
T1 sequence: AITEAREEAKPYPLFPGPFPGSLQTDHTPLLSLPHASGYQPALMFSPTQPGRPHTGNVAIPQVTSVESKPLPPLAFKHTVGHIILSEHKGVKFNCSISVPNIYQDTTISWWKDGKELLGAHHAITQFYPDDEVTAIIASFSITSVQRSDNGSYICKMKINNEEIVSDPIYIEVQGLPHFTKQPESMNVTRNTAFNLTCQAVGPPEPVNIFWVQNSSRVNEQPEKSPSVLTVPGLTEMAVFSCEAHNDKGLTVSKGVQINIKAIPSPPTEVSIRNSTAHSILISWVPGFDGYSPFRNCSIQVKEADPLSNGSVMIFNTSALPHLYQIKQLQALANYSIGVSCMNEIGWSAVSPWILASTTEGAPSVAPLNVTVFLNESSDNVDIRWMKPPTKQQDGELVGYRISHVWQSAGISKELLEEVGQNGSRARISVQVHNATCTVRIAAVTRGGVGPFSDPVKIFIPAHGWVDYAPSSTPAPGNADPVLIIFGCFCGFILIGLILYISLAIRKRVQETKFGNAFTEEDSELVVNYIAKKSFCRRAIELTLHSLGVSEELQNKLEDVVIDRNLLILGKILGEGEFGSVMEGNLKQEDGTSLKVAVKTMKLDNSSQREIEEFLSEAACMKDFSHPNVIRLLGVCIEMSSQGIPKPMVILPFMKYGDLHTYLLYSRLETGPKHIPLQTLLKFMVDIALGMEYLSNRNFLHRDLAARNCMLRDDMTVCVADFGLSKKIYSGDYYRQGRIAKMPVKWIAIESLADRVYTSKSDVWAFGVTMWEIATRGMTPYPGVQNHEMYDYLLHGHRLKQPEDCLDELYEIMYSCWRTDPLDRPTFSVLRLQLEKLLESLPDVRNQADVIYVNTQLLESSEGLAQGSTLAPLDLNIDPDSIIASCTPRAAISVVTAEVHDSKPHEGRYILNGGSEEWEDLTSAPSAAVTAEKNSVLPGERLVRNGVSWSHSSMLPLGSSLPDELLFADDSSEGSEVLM

T2: recombinant human MerTK extracellular domain (human, UniProt Q12866 21-505)
T2 construct: also called human MerTK ECD; not shown: polyHis or TEVS/Thrombin/murine IgG2a-Fc tag
T2 sequence: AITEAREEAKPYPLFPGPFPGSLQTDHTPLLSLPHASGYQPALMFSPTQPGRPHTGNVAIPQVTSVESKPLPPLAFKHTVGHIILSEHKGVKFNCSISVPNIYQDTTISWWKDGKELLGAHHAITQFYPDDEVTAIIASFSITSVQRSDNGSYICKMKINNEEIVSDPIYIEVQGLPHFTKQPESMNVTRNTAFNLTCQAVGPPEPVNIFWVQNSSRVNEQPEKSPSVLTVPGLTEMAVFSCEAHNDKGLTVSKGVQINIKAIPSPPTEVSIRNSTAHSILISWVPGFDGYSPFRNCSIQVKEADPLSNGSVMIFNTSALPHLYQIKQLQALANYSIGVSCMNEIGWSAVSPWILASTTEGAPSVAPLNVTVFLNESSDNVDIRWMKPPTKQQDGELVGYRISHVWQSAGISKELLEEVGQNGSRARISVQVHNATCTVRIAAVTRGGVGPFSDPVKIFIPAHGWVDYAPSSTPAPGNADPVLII


Key:
human MerTK [1] = target: T1, human MerTK; assay: cell-based or functional assay
human MerTK [2] = target: T1, human MerTK; assay: FACS, SK-MEL-5 cells, 10 ug/ml
Protocol: To determine whether recombinant anti-human MerTK antibodies of the present disclosure bind to human MerTK endogenously expressed on SK-MEL-5 cells and CHO cells overexpressing mouse MerTK (CHO-muMerTK OE cells), as compared to A375 and parental CHO cells as negative controls, the following experiments were performed. SK-MEL-5 cells, A375 cells, CHO-muMerTK OE cells, and CHO parental cells were plated at 100,000 cells/well. Anti-MerTK antibodies were added to the cells at 10 μg/ml. After 60 minutes on ice, cells were washed and then stained with PE-conjugated goat anti-human IgG antibody (Southern Biotech Cat #2040-09, Birmingham, AL) in the presence of Fc block solution on ice for 30 minutes, and then washed twice with cold FACS buffer (2% FBS in PBS). Mouse anti-human MerTK-PE conjugated (Biolegend, Clone 590H11G1E3) or anti-mouse MerTK-PE conjugated (ThermoFisher, Clone DS5MMER) antibodies were used as positive controls. Stained cells were acquired on a BD FACS Canto II cytometer and the mean fluorescence intensity (MFI) was calculated with FlowJo.

[3] = target: T2, recombinant human MerTK extracellular …; assay: SPR Carterra LSA, Ab immobilised
Protocol: Binding kinetics of anti-MerTK IgG1 antibodies of the present disclosure to human, cyno, and murine MerTK were evaluated using a Carterra LSA instrument (Carterra, Salt Lake City, UT). […] A HC200M sensor chip (Carterra) was activated using the single channel flow cell with a 7-minute injection of a 1:1:1 mixture of 100 mM MES pH 5.5, 100 mM sulfo-NHS, 400 mM EDC (all reconstituted in MES pH 5.5; 100 μl of each mixed in vial immediately before running assay). After switching to the multi-channel array flow cell, the antibodies were injected over the activated chip in three 96-spot arrays for 10 minutes each. The remaining unconjugated active groups on the chip were then blocked by injecting 1M Ethanolamine pH 8.5 (Carterra) for 7 minutes using the single channel flow cell. The resulting sensor chip contained three spots for each antibody, at three different densities. Two independent experiments were performed as follows, resulting in an N of between one and six determinations for each antibody. Spots that yielded less than 25 RU of analyte binding were excluded from further analysis.
After priming with running buffer (HBS-TE, Carterra) with 0.5 mg/ml BSA (Sigma), the immobilized anti-MerTK antibodies were tested for their ability to bind to several forms of recombinant MerTK extracellular domain, including human, cynomolgus, and mouse orthologs as described above. Estimates of affinity were generated by injecting each analyte over the entire antibody array using the single channel flow cell. MerTK analytes were diluted with running buffer, in a series of six, three-fold serial dilutions starting from 1 μM for human and cynomolgus MerTK, and 600 nM for mouse MerTK. Analytes were injected for 5 minutes, and dissociation was followed for 10 minutes. After each analyte injection, antibodies were regenerated with either Protein A/G Elution Buffer (Thermo) with 1M NaCl (Teknova), or with 10 mM Glycine pH 2.5. Three buffer blanks were run between each series (one species per series). Data were processed and analyzed using NextGenKIT high-throughput kinetics analysis software (Carterra).

Binder | Fold increase in PAKT over IgG control (human MerTK [1]) [fold] | MFI (human MerTK [2]) [MFI] | Kd [3] [nM] | EC50 (nM), pAKT in SK-MEL-5 cells (human MerTK [1]) [nM]
MTK-213 (antibody, human IgG1, V domains shown) VH: QVQLQQPGAELVKPGASVKMSCKASGYTFTSYWITWVKQRPGQGHEWIGEIYPGIGSTNYNEKFKSKATLTVDTSSRTAYMQLSSLTSEDSAVYFCARGAYTKYYFDYWGQGTTLTVSS VL: DIVMTQSHKFMSTSVGDRVSITCKASQDVGDAVAWYQQKPGQTPKLLIYWASTRHTGVPDRFTGSGSGTDFTLTISNVQSEDLADYFCQQYSSYLMYTFGGGTKLEIK | 3.7 | 40300 | 64 | –
MTK-228 (antibody, human IgG1, V domains shown) VH: QDQLQQSGPELVKPGASVKISCKASGYSFTSYYIHWVKQRPGQGLEWVGWIFPGNGNTKYNERFKGKATLTADTSSSTAYMQLSSLTSEDSAVYYCARLGLIYALDYWGQGTSVTVSS VL: DAVMTQTPLSLPVSLGDQASISCRSSQSLENSNGNTYLHWYLQKPGQSPQLLIYRVSNRFSGVLDRFSGSGSGTDFTLKISRVEAEDLGVYFCLQVTHVPFTFGSGTKLEIK | 4.2 | 60200 | 42 | 0.53
MTK-218 (antibody, human IgG1, V domains shown) VH: QVQLQQSGPELVKPGTSVKISCKASGYSFTSYYIHWVKQRPGQGLDWIGWIFPGNRNTQYNEKFKGKATLTADTSSSTAYMQLSSLTSEDSAVYYCARLGLIYALDYWGQGTSVTVSS VL: DAVMTQTPLSLPVSLGDQASISCRSSQSLENSNGHTYLHWYLQKPGQSPQLLIYRVSNRFSGVQDRFSGSGSGTDFTLKISRVEAEDLGVYFCLQVTHVPFTFGSGTKLEIK | 4.5 | 49000 | 64 | –
MTK-220 (antibody, V domains shown) VH: EVQLVESGGGLVKPGGSLKLSCAASGFTFSDYGMHWVRQAPEKGLEWVAFISGGSGTIYYEDTVKGRFTISRDNAKNTLFLQMTSLRSEDTAMYYCTRGGNYFDYWGQGTTLTVSS VL: NIMLTQSPSSLAVSAGEKVTMTCKSSQSVLYSSNQKNYLAWYQQKPGQSPKLLIYWASTRESGVPDRFTGSGSGTDFTLTISNVQAEDLAVYYCHQYFSSWTFGGGTKLEIK | 3.6 | 29000 | 150 | –
MTK-223 (antibody, human IgG1, V domains shown) VH: DVQLQESGPGLVKPSQSLSLTCSVTGYSITSGYYWNWIRQFPGNKLEWMGYISYDGTNNYNPSLKNRISITRDTSENQFFLKLNSVTTEDTATYFCVRGAGYWGQGTTLTVSS VL: not shown | 4.1 | 26800 | 75 | –
MTK-201 (antibody, human IgG1, V domains shown) VH: QVQLRQSGPGLVQPSQSLSITCTVSGFSLSNYGLHWVRQSPGKGLEWLGVIWSGGITDYNAAFISRLSIIKDNSRSQVFFKMNSLQADDTAIYYCARKGHDPYAMDFWGQGTSVTVSS VL: QIVLTQSPPIMSAFLGERVTMTCTASSSVSSSYLHWYRQMPGSSPKLWIYDTSNLASGVPARFSGSGSGTSYSLTISSMEAEDAATYYCHQYHHSPYTFGGGTKLEIK | 4.3 | 40300 | – | 0.65
MTK-211 (antibody, human IgG1, V domains shown) VH: QVQLQQSGAELMKPGASVKLSCKATGYTFTGYWIEWVKQRPGHGLEWIGEILPGSGGSNYNEKFKGKATFTADTSSNTAYIQLSSLTTEDSAIYCCARGEPSYFSDAGFAYWGQGTLVTVSA VL: QIVLTQSPAVMSASPGEKVTMTCSASSSITYMHWYQQKPGTSPKRWIYDTSKLASGVPARFSGSGSGTSYFLTISSMEAEDVATYYCHQRSTYPYTFGGGTKLEIM | 4 | 30500 | 1.3 | –

The remaining lines, values ahead:

Fold increase in PAKT over IgG control (human MerTK [1]) [fold] | MFI (human MerTK [2]) [MFI] | Kd [3] [nM] | EC50 (nM), pAKT in SK-MEL-5 cells (human MerTK [1]) [nM] | Binder
4.7 | 40900 | 99 | 1.89 | MTK-227 (antibody, human IgG1, V domains shown) VH: EVKLVESGGGLVQPGGSLSLSCAASGFTFTDNYMTWVRQPPGKALEWLGFSRNKANGYTTEYSASVKGRFTISRDSSQSILYLQMNALRAEDSGTYYCARFPPHYYAGGYFDVWGTGTTVTVSS VL: DIQMTQSPASLSASVGETVTITCRASENIYSYLAWYQQKQGKSPQLLVYNAKTLAEGVPSRFSGSGSGTQFSLKINSLQPADFGSYYCQHYYRTPPTFGGGTKLEIK
4.2 | 49100 | 39 | 0.53 | MTK-226 (antibody, human IgG1, V domains shown) VH: QVQLQQSGPELVKPGASVKISCKASGYSFTSYYIHWVKQRPGQGLEWIGWIFPGNGNTKYNENFRGKATLTADTSSSTAYMQLSSLTSEDSAVYYCARLGLIYALDYWGQGTSVTVSS VL: DAVMTQTPLSLPVSLGDQASISCRSSQSLESSNGNTYLHWYLQKPGQSPQLLIYRVSNRFSGVLDRFSGSGSGTDFTLQISRVEAEDLGVYFCLQVTHVPFTFGSGTKLEIK
4.1 | 32200 | 18 | 1.89 | MTK-229 (antibody, human IgG1, V domains shown) VH: QVQLQQSGPELVKPGASVKISCKASGYEFSRSWMNWVKQRPGKGLEWIGRIYPGDGDTNYKGKLKGQATLTADKSSSTAYMQLSSLTFEDSAVYFCARGGGYYYDSRYEGFVYWGQGTVVTVSA VL: QIVLTQSPAIMSASPGEEVTMTCSASSSVSYMHWYQQKSGTSPKRWIYDTSKLASGVSGRFSGSGSGTSYSLTISSMEAEDAATYYCQQWSSNPPITFGAGTKLELK
